From PMC7192595

For “MBP-Leish4E-IP2_(1-134) (domain or fragment)”, the reduction of the binding of SBP-LeishIF4E-1 (cell lysate) to m7GTP-agarose by 0, 5, 10, 20 ug MBP-Leish4E-IP2 (1-134) per 300 ul, densitometry of anti-SBP blots; 13% at 5 ug; MBP alone had no effect (LeishIF4E-1-SBP) was 42% and the reduction of the binding of SBP-LeishIF4E-3 (cell lysate) to m7GTP-agarose by 0, 5, 10, 20 ug MBP-Leish4E-IP2 (1-134) per 300 ul, densitometry of anti-SBP blots; 60% at 5 ug (LeishIF4E-3-SBP) was 96%.
